Source: PMC6547619, “Development of an anti‐BAG3 humanized antibody for treatment of pancreatic cancer” (Molecular Oncology, 2019)
Where a chain is given by its changes, count along the chain named. Blank lines part the entries; values can stand above or below the binder they belong to.

What was measured:
Details in all cases: both partners purified
[1] = biological target: T1, human recombinant BAG3 protein (Homo sapiens, UniProt O95817); test: ELISA; direct ELISA; plates coated with human recombinant BAG3 (1 μg/mL in PBS); humanized antibodies in scalar dilutions, 500 to 15.6 ng/mL; HRP anti-human IgG, O.D. 450 nm
T1 construct: the cleavage released the full-length polypeptide; The ELISA methods say only 'human recombinant BAG3 protein'; For the flow cytometry it was labelled with FITC (FluoroTag FITC conjugation kit); also called rBAG3; full-length BAG3; not shown: biotinylated tag (AviTag, from the vector pAViTag-N N-His SUMO), N-terminal, cleaved; His, N-terminal, cleaved; SUMO, N-terminal, cleaved
T1 sequence (O95817 whole entry): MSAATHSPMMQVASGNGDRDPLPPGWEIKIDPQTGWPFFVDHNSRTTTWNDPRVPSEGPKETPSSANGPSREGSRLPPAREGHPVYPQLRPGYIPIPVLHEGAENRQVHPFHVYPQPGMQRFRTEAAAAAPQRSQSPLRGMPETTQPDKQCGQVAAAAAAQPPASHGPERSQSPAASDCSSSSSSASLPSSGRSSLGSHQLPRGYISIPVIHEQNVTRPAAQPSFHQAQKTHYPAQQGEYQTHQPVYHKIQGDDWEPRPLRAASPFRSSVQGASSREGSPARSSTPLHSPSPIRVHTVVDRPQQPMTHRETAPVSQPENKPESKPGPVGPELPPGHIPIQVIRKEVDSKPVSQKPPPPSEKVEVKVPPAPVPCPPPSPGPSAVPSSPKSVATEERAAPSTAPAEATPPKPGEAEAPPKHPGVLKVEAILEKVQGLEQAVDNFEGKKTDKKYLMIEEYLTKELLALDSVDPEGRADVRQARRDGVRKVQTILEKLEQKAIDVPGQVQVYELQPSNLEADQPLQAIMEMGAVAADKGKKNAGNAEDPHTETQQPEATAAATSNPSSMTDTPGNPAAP

[2] = biological target: T2, E. coli rBAG3 (Abcam) (Homo sapiens (assumed; species of …, UniProt O95817); test: SPR; Biacore 2000, 25 °C; humanized variants captured on an anti-human Fc antibody covalently coupled on a CM5 chip; rBAG3 flowed at variable concentrations
T2 construct: BAG3 (BCL2-associated athanogene 3), recombinant, made in E. coli, bought from Abcam; Antigen of the SPR experiments only; no catalogue number is printed; also called antigen; source: bought: Abcam (E. coli rBAG3)
T2 sequence (O95817 whole entry): as above

[3] = biological target: T2, E. coli rBAG3 (Abcam); test: SPR; Biacore 2000, 25 °C; AC-2 captured on an anti-mouse Fc antibody covalently coupled on a CM5 chip; rBAG3 flowed at 0.39 to 200 nM; 2-state reaction model
[4] = biological target: T3, murine rBAG3 (Mus musculus, UniProt Q9JLV1); test: immunoprecipitation; BAG3-H2L4 used to immunoprecipitate murine rBAG3; immunoblot with a rabbit polyclonal anti-BAG3
T3 construct: the cleavage released the full-length polypeptide; also called murine form of BAG3; not shown: biotinylated tag (AviTag, from the vector pAViTag-N N-His SUMO), N-terminal, cleaved; His, N-terminal, cleaved; SUMO, N-terminal, cleaved
T3 sequence (Q9JLV1 whole entry): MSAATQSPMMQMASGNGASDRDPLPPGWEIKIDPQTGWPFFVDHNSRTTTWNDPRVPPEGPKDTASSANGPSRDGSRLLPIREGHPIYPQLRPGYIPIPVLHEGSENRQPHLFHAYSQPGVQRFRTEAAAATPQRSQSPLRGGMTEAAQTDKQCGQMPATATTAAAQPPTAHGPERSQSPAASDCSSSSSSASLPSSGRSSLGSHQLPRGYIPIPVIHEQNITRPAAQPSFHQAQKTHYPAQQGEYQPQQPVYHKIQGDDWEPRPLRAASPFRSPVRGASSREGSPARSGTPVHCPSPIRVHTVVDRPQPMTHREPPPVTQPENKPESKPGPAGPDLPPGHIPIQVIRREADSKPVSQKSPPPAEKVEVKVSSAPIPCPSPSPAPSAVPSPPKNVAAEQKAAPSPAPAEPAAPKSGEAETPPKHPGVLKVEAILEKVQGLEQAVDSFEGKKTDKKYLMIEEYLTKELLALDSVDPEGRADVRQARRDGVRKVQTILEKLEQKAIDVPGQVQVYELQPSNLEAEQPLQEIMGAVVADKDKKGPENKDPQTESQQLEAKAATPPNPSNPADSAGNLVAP

binding result [1]: binds
binding result [2]: binds
B1: BAG3-H4L2 (antibody, V domains shown)
VH: EVQLVQSGAEVKKPGATVKISCKVSGFNIKDTYMYWVQQAPGKGLEWMGGVDPANGNTRYDPKFQGRVTITADTSTDTAYMELSSLRSEDTAVYYCARDGAMDYWGQGTLVTVSS
VL: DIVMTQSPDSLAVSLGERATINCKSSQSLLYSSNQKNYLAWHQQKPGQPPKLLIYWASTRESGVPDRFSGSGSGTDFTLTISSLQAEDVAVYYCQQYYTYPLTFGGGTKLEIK
notes: humanized heavy chain variant H4: CDRs of AC-2 (humanized light chain variant L2: CDRs of AC-2 (IgG1, kappa)); source: CHO, transiently transfected, purified from supernatant (Protein A FPLC), Evitria AG

Kd [3]: 14.4 nM
B2: murine anti-BAG3 antibody AC-2 (antibody, V domains shown)
VH: EVQLQQSGAELVKPGASVKLSCTASGFNIKDTYMYWVKQRPEQGLEWIGGVDPANGNTRYDPKFQGKATLTADTSSSTAYLQLSSLTSEDTAVYYCGRDGAMDYWGQGTSVTVSS
VL: DIVMSQSPSSLAVSVGEKVTMSCKSSQSLLYSSNQKNYLAWHQQKPGQSPKLLIYWASTRESGVPDRFTGSGSGTDFTLTISSVKAEDLAIYYCQQYYTYPLTFGAGTKLELK
notes: murine heavy chain; murine light chain; also called mAb AC-2; anti-BAG3 clone AC-2; source: mouse hybridoma clone AC-2 (supernatant in the peptide ELISA)

binding result [4]: binds
binding result [1]: binds
binding result [2]: binds
B3: BAG3-H2L4 (antibody, V domains shown)
VH: QVQLVQSGAEVKKPGASVKVSCKASGFNIKDTYMYWVRQAPGQGLEWMGGVDPANGNTRYDPKFQGRVTLTRDTSTSTVYMELSSLRSEDTAVYYCGRDGAMDYWGQGTLVTVSS
VL: B2 VL with S5T, S9D, V15L, K18R, V19A, S49P, T69S, V84L, K85Q, L112I
notes: humanized heavy chain variant H2: CDRs of AC-2 (humanized light chain variant L4: CDRs of AC-2 (IgG1, kappa)); also called humanized anti-BAG3 antibody; humanized BAG3-H2L4 antibody; source: CHO, transiently transfected, purified from supernatant (Protein A FPLC), Evitria AG
